According to paper PMC6650940, “Investigations of Accessibility of T2/T3 Copper Center of Two-Domain Laccase from Streptomyces griseoflavus Ac-993” (International Journal of Molecular Sciences, 2019):

Assays:
[1] = substrate: CCn1c(=NN=c2sc3cc(S(=O)(=O)O)ccc3n2CC)sc2cc(S(=O)(=O)O)ccc21; test: purified protein; type: biochemical, Streptomyces griseoflavus; settings: pH 4.0, 30 °C, Britton-Robinson buffer, 1 mM CuSO4 growth medium
[2] = substrate: COc1cccc(OC)c1O; test: purified protein; type: biochemical, Streptomyces griseoflavus; settings: pH 9.0, 30 °C, Britton-Robinson buffer, 1 mM CuSO4 growth medium

Protein | Km [1] [µM] | kcat [1] [s⁻¹] | kcat/Km [1] [M⁻¹ s⁻¹] | Km [2] [µM] | kcat [2] [s⁻¹] | kcat/Km [2] [M⁻¹ s⁻¹]
SgfSL wt (two-domain laccase, Streptomyces griseoflavus Small Laccase) (Streptomyces griseoflavus; I170A) (protein, Ni-NTA purified from E. coli (pQE-30); I170A and I170F from pET32-Xa/LIC with thioredoxin tag cut by factor Xa (forward primer encodes AGAAPAGG...); homotrimer) AGAAPAGGEVRRVTMYAERLAGGQMGYGLEKGKASIPGPLIELNEGDTLHVEFENTMDVPVSLHVHGLDYEISSDGTKQNKSHVEPGGTRTYTWRTHEPGRRADGTWRAGSAGYWHYHDHVVGTEHGTGGARNGLYGPVIVRRKGDVLPDATHTIVFNDMTINNRPAHTGPNFEATVGDRVEIVMITHGEYYHTFHMHGHRWADNRTGMLTGPDDPSQVIDNKICGPADSFGFQIIAGEGVGAGAWMYHCHVQSHSDMGMVGLFLVKKPDGTIPGYDPQEHAH | 630 ± 110 | 0.7 ± 0.2 | 1110 | – | – | –
SgfSL wt (two-domain laccase, Streptomyces griseoflavus Small Laccase) (Streptomyces griseoflavus; I170F) (protein, Ni-NTA purified from E. coli (pQE-30); I170A and I170F from pET32-Xa/LIC with thioredoxin tag cut by factor Xa (forward primer encodes AGAAPAGG...); homotrimer) AGAAPAGGEVRRVTMYAERLAGGQMGYGLEKGKASIPGPLIELNEGDTLHVEFENTMDVPVSLHVHGLDYEISSDGTKQNKSHVEPGGTRTYTWRTHEPGRRADGTWRAGSAGYWHYHDHVVGTEHGTGGFRNGLYGPVIVRRKGDVLPDATHTIVFNDMTINNRPAHTGPNFEATVGDRVEIVMITHGEYYHTFHMHGHRWADNRTGMLTGPDDPSQVIDNKICGPADSFGFQIIAGEGVGAGAWMYHCHVQSHSDMGMVGLFLVKKPDGTIPGYDPQEHAH | 200 ± 40 | 0.08 ± 0.01 | 400 | – | – | –
SgfSL wt (two-domain laccase, Streptomyces griseoflavus Small Laccase) (Streptomyces griseoflavus) (protein, Ni-NTA purified from E. coli (pQE-30); I170A and I170F from pET32-Xa/LIC with thioredoxin tag cut by factor Xa (forward primer encodes AGAAPAGG...); homotrimer) AGAAPAGGEVRRVTMYAERLAGGQMGYGLEKGKASIPGPLIELNEGDTLHVEFENTMDVPVSLHVHGLDYEISSDGTKQNKSHVEPGGTRTYTWRTHEPGRRADGTWRAGSAGYWHYHDHVVGTEHGTGGIRNGLYGPVIVRRKGDVLPDATHTIVFNDMTINNRPAHTGPNFEATVGDRVEIVMITHGEYYHTFHMHGHRWADNRTGMLTGPDDPSQVIDNKICGPADSFGFQIIAGEGVGAGAWMYHCHVQSHSDMGMVGLFLVKKPDGTIPGYDPQEHAH | – | – | – | 5200 ± 110 | 0.8 ± 0.09 | 150
